From article PMC10720262 (2023)

B1: CL-512459 (antibody, V domains shown)
VH: QVQLVESGGGVVQPGRSLRLSCTASGFTFSDYGMHWVRQAPGKGLEWVSIIWYDGSKKYYADSVQGRFTISRDNSKNTLYLQMSSLRAEDTAVYYCARAYGSGSYYTFNYWGQGTLVTVSS
VL: EIVMTQSPATLSVSPGERATLSCRASQSVNSNLAWYQQKPGQAPRLLIYGASTRATGFPARFIGSGSGTDFTLTINSLQSEDFAVYYCQQYNHWWTFGQGTKVEIK
modifications: peptides N-terminally acetylated and C-terminally amidated
B2: CL-515341 (antibody, V domains shown)
VH: QVYLVESGGGVVQPGKSLRLSCAASGFTFSNYGMHWVRQAPGKGLEWVAIIWHDGSNKFYSDSVRGRFTISRDNSQNTLYLQMNSLSAEDTALYFCAKDIGYSNTWDYFDYWGQGTLVTVSS
VL: EIVLTQSPATLSLSPGERATLSCRASQSVNSFLAWYQQKPGQAPRLLIYDASNRATDIPDRFSGSGSGTDFTLTIRSLEPEDFAVYFCQQRSKWFTFGGGTTVEMK
modifications: peptides N-terminally acetylated and C-terminally amidated
B3: CL-512374 (antibody, V domains shown)
VH: QVQLVESGGGVVQPGRSLRLSCAASGFTFSSYGMHWVRQAPGKGLEWVAVIWYDGSNKYYADSVKGRFTISRDNSKNTLYLQMNSLRAEDTAVYYCARDGGGTTRSFDLWGRGTLVTVSS
VL: QSVLTQPPSVSGAPGQRVTISCTGSSSNIGAGYDVHWYQQLPGTAPKLLIYGNSNRPSGVPDRFSGSKSGTSASLAITGLQAEDEADYYCQSYDSSLSGSMFGGGTKLTVL
modifications: peptides N-terminally acetylated and C-terminally amidated
B4: Ky15.11 (antibody, V domains shown)
VH: QVQLVESGGGVVQPGRSLRLSCEASGFTFSNFGMHWVRQTPVKGLEWVAIIWFDGSYKYYTDSVKGRFTISRDNSKNTLYLQMNSLRAEDTAVYYCARARKGQRSDYYGSETSYTFDNWGQGTLVTVSS
VL: DIQMTQSPSTLSASVGDRVTITCRASQSINGWLAWYQQKPGKAPKFLIYKASILESGIPSRFSGSGSGTEFTLTISSLQPDDFATYYCQQYSSYWTFGQGTKVEIK
modifications: peptides N-terminally acetylated and C-terminally amidated
B5: CL-459075 (antibody, V domains shown)
VH: QVQLVASGGGVVQPGRSLRLSCAASGFTFSNYGMHWVRQAPGKGLEWVSIIWYDGSKKYYSDSVKGRFTISRDNSKNTLYLQMNSLRAEDTAVYYCARAYGSGSYSDDYYGMDVWGQGTTVTVSS
VL: DIQMTQSPSTLSASVGDRVTITCRASQSISTWLAWCQQKPGKAPKLLIYKASNLESGVPSRFSGSGSGTEFTLTISSLQPDDFATYYCQQYYSYWTFGQGTKVEIK
modifications: peptides N-terminally acetylated and C-terminally amidated
B6: CL-511862 (antibody, V domains shown)
VH: QVQLVESGGGVVQPGKSLRLSCAASGFSFSSSGMHWVRQAPDKGLEWVAIIWYDGSHKFYADSVKGRFTISRDNSDNTLFLQMDSLRAEDTAVYYCVRAYPTSYNGNYDKYGMDVWGQGTTVTVSS
VL: DIQMTQSPSTLSASVGDRVTIACRASQSISTWLAWYQQKPGKAPKLLIYKASTLESGVPSRFSGSGSGTEFTLTISSLQPDDFATYYCQQFTFYWTFGQGTKVEIK
modifications: peptides N-terminally acetylated and C-terminally amidated
B7: Ky15.7 (antibody, V domains shown)
VH: QVQVVESGGGAVQPGRSLRLSCAASGFTFSNRGMHWVRQTPGKGLEWVAIIWYDGGNKFYADSVKGRFTISRDNSKNTLYLQMNSLRDEDTAVYYCVRAGDWKADKYTMDVWGQGTTVTVSS
VL: DIQMTQSPSTLSASVGDRVTITCRASQSISSWLAWYQQKPGKAPKVLIYQASSLESGVPSRFSGSGSGTEFTLTISSLQPDDFATYYCQQYNSYWTFGQGTKVEIK
modifications: peptides N-terminally acetylated and C-terminally amidated
B8: Ky15.3 (antibody, V domains shown)
VH: QVQLVESGGGVVQPGRSLRLSCVASGFTFSNAGMHWVRQTPGKGLEWVAIIWYDGSIKYYGESVKGRFTISRDNSKNTLYLEMSSLRAEDTAVYFCVRAYSGSLYDKYGMDVWGQGTTVIVSS
VL: DIQMTQSPSTLSASVGDRVTISCRASQTISTWLAWFQQKPGKAPKLLIYAASSLQSGVPSRFSGSGSGTDFTLTISNLQPDDFATYYCQQFNSYWTFGQGTKVEIK
modifications: peptides N-terminally acetylated and C-terminally amidated
B9: CL-531271 (antibody, V domains shown)
VH: QVQLVESGGGEVQPGRSLRLSCAASGFTFSNYGMHWVRQAPGKGLEWVALIWYDGNNKFYADSVNGRFTISRDNSNNTLYLQMNSLRAEDTGVYYCARSFYYVSGNFFDYWGQGTLVTVSS
VL: DIPMTQSPSSVSASVGDRVTITCRASQGISTWLAWYQQKPGKAPKFLIYAASSLQSGVPSRFSGSGSGTDFTLTIYSLQPEDFATYYCQQGNSFPWTFGQGTKVEIK
modifications: peptides N-terminally acetylated and C-terminally amidated
B10: CL-444592 (antibody, V domains shown)
VH: QVQLVESGGGVVQPGRSLRLSCAASGFTFSSYGMHWVRQAPGKGLEWVAVIWYDGSNKYYADSVKGRFTISRDNSKNTLYLQMNSLRAEDTAVYYCARDGNWNYNYYYGMDVWGQGTTVTVSS
VL: DIQLTQSPSFLSASVGDRVTITCWASQGISSYLAWYQQKPGKAPKLLIYAASTLQSGVPSRFSGSGSGTEFTLTISSLQPEDFATYYCQQLNSYPPTFGQGTRLEIK
modifications: peptides N-terminally acetylated and C-terminally amidated
B11: CL-437492 (antibody, V domains shown)
VH: QEQLVESGGGVVQPGNSLRLSCVASGFTFSNHGMHWVRQAPGKGLEWVAIIWYDGSQKFYSDSVKGRFTISRDNSKNTLYLQMNSLRAEDTAIYYCARVDWSGNDWGWFDPWGQGTLVTVSS
VL: EIVLTQSPDTLSLSPGERATLSCRASQTLSSRHLAWYQQKPGQAPRLLIYGASSRATGIPDRFSGSGSGTDFTLTINRLEPEDFAVFYCQQYGRLWTFGQGTKVEIK
modifications: peptides N-terminally acetylated and C-terminally amidated
B12: CL-512508 (antibody, V domains shown)
VH: QVQLVESGGGVVQPGTSLRLSCGASGFTFSSYGMHWVRQAPGKGLEWVAIIWYDGNNKYYADSVKGRFTISRDNSKNTLYLQMNSLRAEDTAVYYCAKVGQFSTSSWGAFDIWGQGTMVTVSS
VL: EIVLTQSPGTLPLSPGERATLSCRASQSVSSSQLAWYQQKPGQAPRLLIYGASSRATAIPDRFSGSGSGTDFTLTISRLEPEDFAVYYCQQYSRLWTFGQGTKVEIK
modifications: peptides N-terminally acetylated and C-terminally amidated
B13: CL-510082 (antibody, V domains shown)
VH: QVQLVESGGGVVQPGKSLRLSCVASGFTFSNNGMHWIRQAPGKGLEWVAIIWYDGSNKFYADSVKGRFTISRDNSHNTLYLQMNSLRAEDTAVYYCARDRMFGSGTWNYFDPWGQGTLVTVSS
VL: EIVLTQSPATLSLSPGERATLSCRASQSVSTYLAWYQQKPGQAPRLLIYDASNRATGIPARFSGSGSGTDFTLTISSLEPEDFAVYYCQQRSYWWTFGQGTKVEIK
modifications: peptides N-terminally acetylated and C-terminally amidated
B14: CL-444387 (antibody, V domains shown)
VH: QVHLVESGGGVVQPGRSLRLSCVASGFSFSSYGMHWVRQAPGKGLEWVAIIWYDGSYTYYADSVKGRFTISRDNSKNTLYLQMNSLRVEDTAVYYCAKVGLSYNGRTGAFDIWGQGTMVTVSS
VL: not shown
modifications: peptides N-terminally acetylated and C-terminally amidated
B15: CL-531286 (antibody, V domains shown)
VH: QVQLVESGGGLVQPGRSLRLSCAASGFTFSSSGMHWVRQAPGKGLEWVAVIWYDGSNKFYADSVKGRFTISRDNSKNTLYLQMNSLRAEDTAVYYCARSGYDILTGYFNFFDPWGQGTLVTVSS
VL: EIVLTQSPGTLSLSPGERATLSCRASQSVSSSHLAWYQQKPGQAPRLLIYGASSRATGIPDRFSGSGSGTDFTLTISRLEPEDFAVYYCHQYVSSFTFGPGTKVDFK
modifications: peptides N-terminally acetylated and C-terminally amidated
B16: CL-445457 (antibody, V domains shown)
VH: QVQLVESGGAVVQPGTSLRLSCAASGFTFSNYGIHWVRQAPGKGLQWVALIWYNGNNKFYADSVQGRFTISRDNSKNILYLQINSLSAEDTAVYYCARAFYSDSGNYMDYWGQGALVTVSS
VL: DIQMTQSPSSVSASVGDRVTITCRARQDISSRLAWYQQKPGKAPKILIYGASSLQSGVPSRFSASGSGTDFTLTISSLQPEDVASYFCQQANSFPWTFGQGTKVEIK
modifications: peptides N-terminally acetylated and C-terminally amidated
B17: CL-453181 (antibody, V domains shown)
VH: QVQLVESGGGVVQPGRSLRLSCAASGFTFSYYGMHWVRQAPGKGLEWVSIIWYDGSNKFYADSVKGRFTISRDNSKDTLYLEMNSLRAEDTAVYYCARVEFYNGSGRDFYYGLDVWGQGTTVTVSS
VL: EIVMTQSPATLSVSPGEGATLSCRASQSVSSNLAWYQQKPGQAPRLLISGASTRATGVPARFSGSGSGTEFALTISSLQSEDFAVYYCQQYSKLWTFGQGTKVEIK
modifications: peptides N-terminally acetylated and C-terminally amidated
B18: CL-509293 (antibody, V domains shown)
VH: QVQLVASGGGVVQPGRSLRLTCAASGFTFSNYGMHWVRQSPGRGLEWVAIIWYDGSNKFYADSVKGRFTISRDNSKNTLYLQMNSLRAEDTAVYYCAKAEQRTNDNYYKYGMDVWGQGTTVTVST
VL: not shown
modifications: peptides N-terminally acetylated and C-terminally amidated
B19: CL-447703 (antibody, V domains shown)
VH: QVQLVESGGGVVQPGRSLRLSCEASGFTFSDHGMHWVRQGPGKGLEWVSIIWYDGSNKYYADSVKGRFTISRDNSKNTLYLEMNRLRAEDTALYYCARVWNHDDYKYSMDVWGQGTTVTVSS
VL: not shown
modifications: peptides N-terminally acetylated and C-terminally amidated
B20: CL-511776 (antibody, V domains shown)
VH: QVQLVESGGGVVQPGRSLTLSCAASGFTFSNFGMHWVRQAPGKGLEWMAVIWYDGNNEFYADSVKGRFTISRDNSKNMLYLHMNSLRAEDTAIYYCAREGDYSASGSHWLFDPWGQGTQVTVSS
VL: DIQMTQSPSTLSASVGDSITITCRASQSINIWLAWYQQKPGKAPNLLIYKASSLESGVPSRFSGSGSGTEFTLTINSLQPDDFATYYCQQYNNYVTFGGGTKVEIK
modifications: peptides N-terminally acetylated and C-terminally amidated
B21: CL-513691 (antibody, V domains shown)
VH: QVQLVESGGDVVQTGRSLRLSCAASGFTFSNYGMHWVRQAPDKGLEWVAIIWYDGSNKFYADSVKGRFTISRDNSKNTLYLHIHSLRAEDTAVYYCARDDRGDSAGPYFVYWGQGTLVTVSS
VL: EIVMTQSPATLSVSPGERATLSCRASQSVSDNLAWYQQRPGQAPRLLIYGASIRATGIPARFGGSGSGTEFTLTISILQSADFAVYYCQQHDSWPWTFGQGTKVEIK
modifications: peptides N-terminally acetylated and C-terminally amidated
B22: CL-458015 (antibody, V domains shown)
VH: QVHLVESGGGVVQPGRSLRLSCAASGFTFSNYGMHWVRQAPGKGLDWVAIIWYDGSNKFYADSVQGRFTISRDNSKNTLYLQMNSLRAEDTAVYYCAKVQDLLGVPSTLGDHYTTDVWGQGTSVTVSS
VL: DIQMTQSPSTLSASVGDRITITCRASQSINDWLAWYQQKAGKAPKLLIYKASSLESGVPSRFSGSGSGTDFTLTISSLQTDDFAIYYCQQYNHYWTFGQGTKVEIK
modifications: peptides N-terminally acetylated and C-terminally amidated
B23: CL-460506 (antibody, V domains shown)
VH: QVQLVESGGGVVQPGRSLRLSCAASGFTFSNYGMHWVRQAPGKGLEWMAIIWYDGSNKYYADSVKGRFTISRDNSMNTLYLQMNSLRPEDTALYYCARAFYYGSGTLDYWGQGTLVTVSS
VL: EIVLTQSPATLSVSPGERATLSCRASQSVSSHLAWYQQKFGQAPRLLIYGASNRATGIPARFSGSGSGTEFTLTISILQSEDFAVYYCQQYNNWFTFGPGTKIDIK
modifications: peptides N-terminally acetylated and C-terminally amidated

Each binder was assayed against PfCSP full length (Plasmodium falciparum (isolate NF54), UniProt P19597) (assay: ELISA AUC).
Chain of PfCSP full length (P19597 20-375): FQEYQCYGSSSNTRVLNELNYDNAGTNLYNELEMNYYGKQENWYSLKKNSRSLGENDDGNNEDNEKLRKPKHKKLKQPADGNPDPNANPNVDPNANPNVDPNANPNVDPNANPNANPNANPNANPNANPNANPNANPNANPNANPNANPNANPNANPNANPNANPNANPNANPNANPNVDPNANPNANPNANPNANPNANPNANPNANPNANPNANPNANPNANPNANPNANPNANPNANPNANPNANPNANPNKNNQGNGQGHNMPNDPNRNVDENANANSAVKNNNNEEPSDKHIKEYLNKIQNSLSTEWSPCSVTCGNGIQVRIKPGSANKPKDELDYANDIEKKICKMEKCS
B1 showed a binding score of 2.08.
Work on B2 yielded a binding score of 2.38.
In the case of B3, the binding score is reported as 1.17.
Binder B4 has a binding score of 2.53.
In the case of B5, the binding score is reported as 2.5.
With B6 the binding score was 2.53.
B7 gave a binding score of 2.3.
B8 gave a binding score of 2.2.
For B9, the binding score was 2.36.
Work on B10 yielded a binding score of 1.5.
For B11, the binding score was 2.2.
B12 gave a binding score of 2.01.
In the case of B13, the binding score is reported as 2.38.
In the case of B14, the binding score is reported as 2.3.
Work on B15 yielded a binding score of 2.29.
In the case of B16, the binding score is reported as 2.
Work on B17 yielded a binding score of 2.6.
With B18 the binding score was 2.12.
B19 was tested, and the binding score was 2.5.
With B20 the binding score was 2.14.
Work on B21 yielded a binding score of 2.36.
Binder B22 has a binding score of 2.2.
Binder B23 has a binding score of 2.2.
